What was measured:
HLA-B*0702 [1] = target: HLA-B*0702 (human); test: iTopia off-rate
HLA-B*0801 [2] = target: HLA-B*0801 (human); test: iTopia net score
HLA-B*0702 [3] = target: HLA-B*0702 (human); test: iTopia affinity
HLA-B*0702 [4] = target: HLA-B*0702 (human); test: iTopia net score
HLA-B*0801 [5] = target: HLA-B*0801 (human); test: iTopia affinity
HLA-A*0301 [6] = target: HLA-A*0301 (human); test: iTopia net score
HLA-A*0301 [7] = target: HLA-A*0301 (human); test: iTopia affinity
HLA-A*0301 [8] = target: HLA-A*0301 (human); test: iTopia off-rate
HLA-A*2402 [9] = target: HLA-A*2402 (human); test: iTopia net score;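 note: iScore from iTopia software combining peptide binding, affinity over a dilution series and off-rate after warming to body temperature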
HLA-A*0201 [10] = target: T1, HLA-A*0201 (human); test: iTopia off-rate;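 note: Half-life of peptide complexes with plate-bound HLA-A2, peptides loaded 18 h at 21 C, washed, then held at 37 C over several time points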
T1 construct: also called HLA-A2.1; HLA A2.1

HLA-A*2402 [11] = target: HLA-A*2402 (human); test: iTopia off-rate
HLA-A*0201 [12] = target: T1, HLA-A*0201; test: iTopia net score;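 note: combined score from peptide binding, ED₅₀ and half-life of peptide complexes with plate-bound HLA-A2 molecules, computed by a proprietary formula in iTopia software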
HLA-A*0201 [13] = target: T1, HLA-A*0201; test: iTopia affinity;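 note: peptide affinity for plate-bound HLA-A2 molecules (iTopia system), with ED50 derived from an eight-point serial peptide dilution series run under binding assay conditions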
HLA-A*0201 [14] = target: T1, HLA-A*0201; test: iTopia binding;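 note: each peptide tested for binding to HLA-A2 molecules immobilized on plates, using a commercial screening kit run per its supplied protocol and reagents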
HLA-A*2402 [15] = target: HLA-A*2402 (human); test: iTopia affinity;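 note: peptide binding to HLA-A*2402 measured in iTopia kit format across eight serial peptide dilutions, ED50 derived from the resulting titration curve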
HLA-A*1101 [16] = target: HLA-A*1101 (human); test: iTopia off-rate
HLA-A*1101 [17] = target: HLA-A*1101 (human); test: iTopia affinity;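 note: affinity derived from a titration of eight serial peptide dilutions, each run under the same conditions as the binding screen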
HLA-A*1101 [18] = target: HLA-A*1101 (human); test: iTopia net score

| Binder | iScore (HLA-B*0801 [2]) | ED50 (HLA-B*0801 [5]) [µM] | iScore (HLA-A*0301 [6]) | ED50 (HLA-A*0301 [7]) [µM] | t1/2 (HLA-A*0301 [8]) | t1/2 (HLA-A*1101 [16]) | ED50 (HLA-A*1101 [17]) [µM] | iScore (HLA-A*1101 [18]) | further results |
| --- | --- | --- | --- | --- | --- | --- | --- | --- | --- |
| EQRTKYRSL [cdr2 442-450 EQRTKYRSL] | 0.16 | 15 |  |  |  |  |  |  | t1/2 (HLA-B*0702 [1]): 1.59; ED50 (HLA-B*0702 [3]): 100 µM; iScore (HLA-B*0702 [4]): 0.031 |
| HPFVNGVEK [cdr2 265-273 HPFVNGVEK] |  |  | 0.05 | 34 | 0.61 |  |  |  |  |
| ELYDLRQHF [cdr2 163-171 ELYDLRQHF] | 0.037 | 340 |  |  |  |  |  |  | iScore (HLA-A*2402 [9]): 0.095; t1/2 (HLA-A*0201 [10]): 0.55; t1/2 (HLA-A*2402 [11]): 0.23; iScore (HLA-A*0201 [12]): 0.132; ED50 (HLA-A*0201 [13]): 2.7 µM; binding vs positive control (HLA-A*0201 [14]): > 30%; ED50 (HLA-A*2402 [15]): 3.3 µM |
| CIKKTKQEI [cdr2 432-440 CIKKTKQEI] | 0.054 | 240 |  |  |  |  |  |  |  |
| LQLAAELGK [cdr2 28-36 LQLAAELGK] |  |  | 0.086 | 15 | 1.12 | 1 | 7.9 | 0.194 |  |
| LVLKENSEL [cdr2 225-233 LVLKENSEL] |  |  |  |  |  |  |  |  | t1/2 (HLA-B*0702 [1]): 0.49; t1/2 (HLA-A*0201 [10]): 0.8; iScore (HLA-A*0201 [12]): 0.119; ED50 (HLA-A*0201 [13]): 7 µM; ED50 (HLA-B*0702 [3]): 34 µM; iScore (HLA-B*0702 [4]): 0.054; binding vs positive control (HLA-A*0201 [14]): > 30% |
| TLLDRNTEL [cdr2 37-45 TLLDRNTEL] | 0.045 | 360 |  |  |  |  |  |  | iScore (HLA-A*2402 [9]): 0.08; t1/2 (HLA-A*2402 [11]): 1.39; ED50 (HLA-A*2402 [15]): 56 µM |
| RQMNEQHAK [cdr2 74-82 RQMNEQHAK] |  |  | 0.147 | 58 | 3.69 | 3.85 | 11 | 0.396 |  |
| ESHRKPLKR [cdr2 300-308 ESHRKPLKR] |  |  | 0.147 | 19 | 1.49 | 0.35 | 26 | 0.063 |  |
| LERQKRVTM [cdr2 211-219 LERQKRVTM] | 0.037 | 140 |  |  |  |  |  |  |  |
| TGAYRARAL [cdr2 240-248 TGAYRARAL] | 0.085 | 18 |  |  |  |  |  |  | t1/2 (HLA-B*0702 [1]): 0.22; ED50 (HLA-B*0702 [3]): 5.7 µM; iScore (HLA-B*0702 [4]): 0.082 |
| CIRRAKAVK [cdr2 331-339 CIRRAKAVK] |  |  | 0.436 | 14 | 6.47 |  |  |  |  |
| HLKKTVTML [cdr2 197-205 HLKKTVTML] | 0.123 | 37 |  |  |  |  |  |  | iScore (HLA-A*2402 [9]): 0.075; t1/2 (HLA-B*0702 [1]): 0.11; t1/2 (HLA-A*0201 [10]): 2.5; t1/2 (HLA-A*2402 [11]): 0.8; iScore (HLA-A*0201 [12]): 0.199; ED50 (HLA-A*0201 [13]): 10 µM; ED50 (HLA-B*0702 [3]): 99 µM; iScore (HLA-B*0702 [4]): 0.022; binding vs positive control (HLA-A*0201 [14]): > 30%; ED50 (HLA-A*2402 [15]): 89 µM |
| PAPSFACLK [cdr2 154-162 PAPSFACLK] |  |  | 0.122 | 11 | 2.19 |  |  |  |  |
| EHLKKTVTM [cdr2 196-204 EHLKKTVTM] | 0.065 | 130 |  |  |  |  |  |  |  |
| AYRARALEL [cdr2 242-250 AYRARALEL] | 0.066 | 26 |  |  |  |  |  |  | iScore (HLA-A*2402 [9]): 0.611; t1/2 (HLA-B*0702 [1]): 0.15; t1/2 (HLA-A*2402 [11]): 1.11; ED50 (HLA-B*0702 [3]): 23 µM; iScore (HLA-B*0702 [4]): 0.033; ED50 (HLA-A*2402 [15]): 0.16 µM |
| VPDSLYVPF [cdr2 275-283 VPDSLYVPF] |  |  |  |  |  |  |  |  | iScore (HLA-A*2402 [9]): 0.116; t1/2 (HLA-B*0702 [1]): 0.58; t1/2 (HLA-A*2402 [11]): 1.26; ED50 (HLA-B*0702 [3]): 47 µM; iScore (HLA-B*0702 [4]): 0.068; ED50 (HLA-A*2402 [15]): 9.2 µM |
| VYDHVFAEK [cdr2 172-180 VYDHVFAEK] |  |  | 0.048 | 25 | 0.36 | 0.7 | 8.8 | 0.146 | iScore (HLA-A*2402 [9]): 0.165; t1/2 (HLA-A*2402 [11]): 1.65; ED50 (HLA-A*2402 [15]): 6.2 µM |
| KEIFSCIKK [cdr2 427-435 KEIFSCIKK] |  |  | 0.231 | 13 | 5.82 | 3.74 | 7 | 0.392 |  |
| LQAQLSLER [cdr2 205-213 LQAQLSLER] |  |  | 0.087 | 19 | 0.99 | 0.56 | 11 | 0.118 |  |
| QLGATGAYR [cdr2 236-244 QLGATGAYR] |  |  | 0.122 | 15 | 0.92 | 0.2 | 27 | 0.038 |  |
| SLAGSDIVK [cdr2 317-325 SLAGSDIVK] |  |  | 0.14 | 11 | 0.88 | 0.74 | 2.1 | 0.283 |  |
| LSLERQKRV [cdr2 209-217 LSLERQKRV] | 0.046 | 280 |  |  |  |  |  |  | t1/2 (HLA-A*0201 [10]): 1.25; iScore (HLA-A*0201 [12]): 0.139; ED50 (HLA-A*0201 [13]): 8.4 µM; binding vs positive control (HLA-A*0201 [14]): > 30% |
| GQGRRSPGK [cdr2 140-148 GQGRRSPGK] |  |  | 0.258 | 7.8 | 1.64 | 2.8 | 2 | 0.633 |  |
| TPPEYKALF [cdr2 418-426 TPPEYKALF] |  |  |  |  |  |  |  |  | iScore (HLA-A*2402 [9]): 0.084; t1/2 (HLA-B*0702 [1]): 1.26; t1/2 (HLA-A*2402 [11]): 0.46; ED50 (HLA-B*0702 [3]): 100 µM; iScore (HLA-B*0702 [4]): 0.027; ED50 (HLA-A*2402 [15]): 11 µM |
| AQLSLERQK [cdr2 207-215 AQLSLERQK] |  |  | 0.075 | 25 | 0.97 | 1.4 | 5.7 | 0.271 |  |
| VQTSRAAAK [cdr2 379-387 VQTSRAAAK] |  |  | 0.279 | 18 | 2.55 | 1.5 | 4.6 | 0.343 |  |
| ALKVKYEEL [cdr2 355-363 ALKVKYEEL] | 0.099 | 84 |  |  |  |  |  |  | iScore (HLA-A*2402 [9]): 0.076; t1/2 (HLA-A*0201 [10]): 0.8; t1/2 (HLA-A*2402 [11]): 0.38; iScore (HLA-A*0201 [12]): 0.107; ED50 (HLA-A*0201 [13]): 7 µM; binding vs positive control (HLA-A*0201 [14]): > 30%; ED50 (HLA-A*2402 [15]): 10 µM |
| LTVPESHRK [cdr2 296-304 LTVPESHRK] |  |  | 0.128 | 26 | 1.53 | 4.59 | 4.8 | 0.558 |  |

— patent publication US20090208538A1 (ROCKEFELLER UNIVERSITY, published 2009)
